Measurements taken from paper PMC8763920, “Unprotected peptide macrocyclization and stapling via a fluorine-thiol displacement reaction” (Nature Communications, 2022).
*1 amine or outer side, *2 acyl side, *3 side chain or, on linkers, in order; H or OH if unused. Where a SMILES comes first, the peptide text is derived from it. Bridges are numbered along the chain shown (N, C = ends). [ ]: non-standard residue; d: D form. Benzene(1,3-(CH2SCH2CO)2) = O=C(CSCc1cccc(CSCC(=O)[*:2])c1)[*:1]; X3 = O=C(CSCCCCCCCCSCC(=O)[*:2])[*:1]; X2 = O=C(CSCCCCCCCSCC(=O)[*:2])[*:1]; X1 = O=C(CSCCCCCCSCC(=O)[*:2])[*:1]; X4 = O=C(CSCCCCCSCC(=O)[*:2])[*:1]; S5 = C=CCCC[C@](C)(N)C(=O)O; dDap = NC[C@@H](N)C(=O)O; Dap = NC[C@H](N)C(=O)O

test: circular dichroism; details: water; pH ns; 25 °C; 70 uM

SMILES	helicity
CC[C@H](C)[C@@H]1NC(=O)[C@H](NC(=O)[C@H](CCC(=O)O)NC(=O)[C@@H]2CCCN2C(=O)[C@H](CC(N)=O)NC(=O)[C@H](CCC(=O)O)NC(C)=O)CNC(=O)CSCCCCCCSCC(=O)NC[C@H](C(=O)N[C@@H](Cc2c[nH]cn2)C(=O)N[C@H](C(=O)N[C@@H](CCC(N)=O)C(=O)N[C@@H](CCCNC(=N)N)C(=O)N[C@H](C(=O)N[C@@H](CCSC)C(N)=O)C(C)C)C(C)C)NC(=O)[C@H](CC(=O)O)NC(=O)[C@H](CC(C)C)NC1=O (Ac-ENPE[dDap]ILD[dDap]HVQRVM-NH2; linker 5-9 via X1)	28%
CC[C@H](C)[C@@H]1NC(=O)[C@@H](NC(=O)[C@H](CCC(=O)O)NC(=O)[C@@H]2CCCN2C(=O)[C@H](CC(N)=O)NC(=O)[C@H](CCC(=O)O)NC(C)=O)CNC(=O)CSCc2cccc(c2)CSCC(=O)NC[C@@H](C(=O)N[C@@H](Cc2c[nH]cn2)C(=O)N[C@H](C(=O)N[C@@H](CCC(N)=O)C(=O)N[C@@H](CCCNC(=N)N)C(=O)N[C@H](C(=O)N[C@@H](CCSC)C(N)=O)C(C)C)C(C)C)NC(=O)[C@H](CC(=O)O)NC(=O)[C@H](CC(C)C)NC1=O	46%
CC[C@H](C)[C@@H]1NC(=O)[C@H](NC(=O)[C@H](CCC(=O)O)NC(=O)[C@@H]2CCCN2C(=O)[C@H](CC(N)=O)NC(=O)[C@H](CCC(=O)O)NC(C)=O)CNC(=O)CSCCCCCCCCSCC(=O)NC[C@@H](C(=O)N[C@@H](Cc2c[nH]cn2)C(=O)N[C@H](C(=O)N[C@@H](CCC(N)=O)C(=O)N[C@@H](CCCNC(=N)N)C(=O)N[C@H](C(=O)N[C@@H](CCSC)C(N)=O)C(C)C)C(C)C)NC(=O)[C@H](CC(=O)O)NC(=O)[C@H](CC(C)C)NC1=O (Ac-ENPE[dDap]ILD[Dap]HVQRVM-NH2; linker 5-9 via X3)	5%
CC[C@H](C)[C@@H]1NC(=O)[C@@H](NC(=O)[C@H](CCC(=O)O)NC(=O)[C@@H]2CCCN2C(=O)[C@H](CC(N)=O)NC(=O)[C@H](CCC(=O)O)NC(C)=O)CNC(=O)CSCCCCCCCSCC(=O)NC[C@@H](C(=O)N[C@@H](Cc2c[nH]cn2)C(=O)N[C@H](C(=O)N[C@@H](CCC(N)=O)C(=O)N[C@@H](CCCNC(=N)N)C(=O)N[C@H](C(=O)N[C@@H](CCSC)C(N)=O)C(C)C)C(C)C)NC(=O)[C@H](CC(=O)O)NC(=O)[C@H](CC(C)C)NC1=O (Ac-ENPE[Dap]ILD[Dap]HVQRVM-NH2; linker 5-9 via X2)	18%
CC(=O)N[C@@H](CCC(N)=O)C(=O)N[C@@H](CO)C(=O)N[C@@H](CCC(N)=O)C(=O)N[C@@H](CCC(N)=O)C(=O)N[C@H](C(=O)N[C@@H](Cc1ccccc1)C(=O)N[C@H]1CNC(=O)CSCc2ccc(cc2)-c2ccc(cc2)CSCC(=O)NC[C@@H](C(=O)N[C@@H](CCC(N)=O)C(=O)N[C@@H](CC(N)=O)C(N)=O)NC(=O)[C@H](CC(C)C)NC(=O)[C@H](CC(C)C)NC(=O)[C@H](CCCNC(=N)N)NC(=O)[C@H](Cc2c[nH]c3ccccc23)NC(=O)[C@H](CC(C)C)NC(=O)[C@H](CC(N)=O)NC1=O)[C@@H](C)O	16%
CC[C@H](C)[C@@H]1NC(=O)[C@H](NC(=O)[C@H](CCC(=O)O)NC(=O)[C@@H]2CCCN2C(=O)[C@H](CC(N)=O)NC(=O)[C@H](CCC(=O)O)NC(C)=O)CNC(=O)CSCCCCCCCSCC(=O)NC[C@@H](C(=O)N[C@@H](Cc2c[nH]cn2)C(=O)N[C@H](C(=O)N[C@@H](CCC(N)=O)C(=O)N[C@@H](CCCNC(=N)N)C(=O)N[C@H](C(=O)N[C@@H](CCSC)C(N)=O)C(C)C)C(C)C)NC(=O)[C@H](CC(=O)O)NC(=O)[C@H](CC(C)C)NC1=O (Ac-ENPE[dDap]ILD[Dap]HVQRVM-NH2; linker 5-9 via X2)	19%
CC[C@H](C)[C@@H]1NC(=O)[C@H](NC(=O)[C@H](CCC(=O)O)NC(=O)[C@@H]2CCCN2C(=O)[C@H](CC(N)=O)NC(=O)[C@H](CCC(=O)O)NC(C)=O)CNC(=O)CSCc2cccc(c2)CSCC(=O)NC[C@H](C(=O)N[C@@H](Cc2c[nH]cn2)C(=O)N[C@H](C(=O)N[C@@H](CCC(N)=O)C(=O)N[C@@H](CCCNC(=N)N)C(=O)N[C@H](C(=O)N[C@@H](CCSC)C(N)=O)C(C)C)C(C)C)NC(=O)[C@H](CC(=O)O)NC(=O)[C@H](CC(C)C)NC1=O	13%
CC(=O)N[C@@H](CCC(N)=O)C(=O)N[C@@H](CO)C(=O)N[C@@H](CCC(N)=O)C(=O)N[C@@H](CCC(N)=O)C(=O)N[C@H](C(=O)N[C@@H](Cc1ccccc1)C(=O)N[C@H]1CNC(=O)CSCc2ccc(cc2)-c2ccc(cc2)CSCC(=O)NC[C@H](C(=O)N[C@@H](CCC(N)=O)C(=O)N[C@@H](CC(N)=O)C(N)=O)NC(=O)[C@H](CC(C)C)NC(=O)[C@H](CC(C)C)NC(=O)[C@H](CCCNC(=N)N)NC(=O)[C@H](Cc2c[nH]c3ccccc23)NC(=O)[C@H](CC(C)C)NC(=O)[C@H](CC(N)=O)NC1=O)[C@@H](C)O	18%
CC(=O)N[C@@H](CCC(N)=O)C(=O)N[C@@H](CO)C(=O)N[C@@H](CCC(N)=O)C(=O)N[C@@H](CCC(N)=O)C(=O)N[C@H](C(=O)N[C@@H](Cc1ccccc1)C(=O)N[C@H]1CNC(=O)CSCCCCCCCSCC(=O)NC[C@H](C(=O)N[C@@H](CCC(N)=O)C(=O)N[C@@H](CC(N)=O)C(N)=O)NC(=O)[C@H](CC(C)C)NC(=O)[C@H](CC(C)C)NC(=O)[C@H](CCCNC(=N)N)NC(=O)[C@H](Cc2c[nH]c3ccccc23)NC(=O)[C@H](CC(C)C)NC(=O)[C@H](CC(N)=O)NC1=O)[C@@H](C)O	40%
CC(=O)N[C@@H](CCC(N)=O)C(=O)N[C@@H](CO)C(=O)N[C@@H](CCC(N)=O)C(=O)N[C@@H](CCC(N)=O)C(=O)N[C@H](C(=O)N[C@@H](Cc1ccccc1)C(=O)N[C@H]1CNC(=O)CSCCCCCCCCSCC(=O)NC[C@H](C(=O)N[C@@H](CCC(N)=O)C(=O)N[C@@H](CC(N)=O)C(N)=O)NC(=O)[C@H](CC(C)C)NC(=O)[C@H](CC(C)C)NC(=O)[C@H](CCCNC(=N)N)NC(=O)[C@H](Cc2c[nH]c3ccccc23)NC(=O)[C@H](CC(C)C)NC(=O)[C@H](CC(N)=O)NC1=O)[C@@H](C)O	37%
CC[C@H](C)[C@@H]1NC(=O)[C@@H](NC(=O)[C@H](CCC(=O)O)NC(=O)[C@@H]2CCCN2C(=O)[C@H](CC(N)=O)NC(=O)[C@H](CCC(=O)O)NC(C)=O)CNC(=O)CSCc2ccc(cc2)CSCC(=O)NC[C@@H](C(=O)N[C@@H](Cc2c[nH]cn2)C(=O)N[C@H](C(=O)N[C@@H](CCC(N)=O)C(=O)N[C@@H](CCCNC(=N)N)C(=O)N[C@H](C(=O)N[C@@H](CCSC)C(N)=O)C(C)C)C(C)C)NC(=O)[C@H](CC(=O)O)NC(=O)[C@H](CC(C)C)NC1=O	17%
CC[C@H](C)[C@@H]1NC(=O)[C@H](NC(=O)[C@H](CCC(=O)O)NC(=O)[C@@H]2CCCN2C(=O)[C@H](CC(N)=O)NC(=O)[C@H](CCC(=O)O)NC(C)=O)CNC(=O)CSCCCCCSCC(=O)NC[C@H](C(=O)N[C@@H](Cc2c[nH]cn2)C(=O)N[C@H](C(=O)N[C@@H](CCC(N)=O)C(=O)N[C@@H](CCCNC(=N)N)C(=O)N[C@H](C(=O)N[C@@H](CCSC)C(N)=O)C(C)C)C(C)C)NC(=O)[C@H](CC(=O)O)NC(=O)[C@H](CC(C)C)NC1=O (Ac-ENPE[dDap]ILD[dDap]HVQRVM-NH2; linker 5-9 via X4)	14%
CC[C@H](C)[C@@H]1NC(=O)[C@@](C)(NC(=O)[C@H](CCC(=O)O)NC(=O)[C@@H]2CCCN2C(=O)[C@H](CC(N)=O)NC(=O)[C@H](CCC(=O)O)NC(C)=O)CCCC=CCCC[C@@](C)(C(=O)N[C@@H](Cc2c[nH]cn2)C(=O)N[C@H](C(=O)N[C@@H](CCC(N)=O)C(=O)N[C@@H](CCCNC(=N)N)C(=O)N[C@H](C(=O)N[C@@H](CCSC)C(N)=O)C(C)C)C(C)C)NC(=O)[C@H](CC(=O)O)NC(=O)[C@H](CC(C)C)NC1=O (Ac-ENPE[S5]ILD[S5]HVQRVM-NH2; staple 5-9)	48%
CC[C@H](C)[C@@H]1NC(=O)[C@@H](NC(=O)[C@H](CCC(=O)O)NC(=O)[C@@H]2CCCN2C(=O)[C@H](CC(N)=O)NC(=O)[C@H](CCC(=O)O)NC(C)=O)CNC(=O)CSCc2cccc(c2)CSCC(=O)NC[C@H](C(=O)N[C@@H](Cc2c[nH]cn2)C(=O)N[C@H](C(=O)N[C@@H](CCC(N)=O)C(=O)N[C@@H](CCCNC(=N)N)C(=O)N[C@H](C(=O)N[C@@H](CCSC)C(N)=O)C(C)C)C(C)C)NC(=O)[C@H](CC(=O)O)NC(=O)[C@H](CC(C)C)NC1=O	44%
CC[C@H](C)[C@@H]1NC(=O)[C@@H](NC(=O)[C@@H](N)CCC(=O)O)CNC(=O)CSCc2cccc(c2)CSCC(=O)NC[C@H](C(=O)N[C@@H](Cc2c[nH]cn2)C(=O)O)NC(=O)[C@H](CC(=O)O)NC(=O)[C@H](CC(C)C)NC1=O (H-E[Dap]ILD[dDap]H-OH; linker 2-6 via Benzene(1,3-(CH2SCH2CO)2))	39%
CC(=O)N[C@@H](CCC(N)=O)C(=O)N[C@@H](CO)C(=O)N[C@@H](CCC(N)=O)C(=O)N[C@@H](CCC(N)=O)C(=O)N[C@H](C(=O)N[C@@H](Cc1ccccc1)C(=O)N[C@H]1CNC(=O)CSCCCCCCCCSCC(=O)NC[C@@H](C(=O)N[C@@H](CCC(N)=O)C(=O)N[C@@H](CC(N)=O)C(N)=O)NC(=O)[C@H](CC(C)C)NC(=O)[C@H](CC(C)C)NC(=O)[C@H](CCCNC(=N)N)NC(=O)[C@H](Cc2c[nH]c3ccccc23)NC(=O)[C@H](CC(C)C)NC(=O)[C@H](CC(N)=O)NC1=O)[C@@H](C)O	42%
CC[C@H](C)[C@@H]1NC(=O)[C@@H](NC(=O)[C@H](CCC(=O)O)NC(=O)[C@@H]2CCCN2C(=O)[C@H](CC(N)=O)NC(=O)[C@H](CCC(=O)O)NC(C)=O)CNC(=O)CSCCCCCCSCC(=O)NC[C@@H](C(=O)N[C@@H](Cc2c[nH]cn2)C(=O)N[C@H](C(=O)N[C@@H](CCC(N)=O)C(=O)N[C@@H](CCCNC(=N)N)C(=O)N[C@H](C(=O)N[C@@H](CCSC)C(N)=O)C(C)C)C(C)C)NC(=O)[C@H](CC(=O)O)NC(=O)[C@H](CC(C)C)NC1=O (Ac-ENPE[Dap]ILD[Dap]HVQRVM-NH2; linker 5-9 via X1)	29%
CC[C@H](C)[C@@H]1NC(=O)[C@H](NC(=O)[C@H](CCC(=O)O)NC(=O)[C@@H]2CCCN2C(=O)[C@H](CC(N)=O)NC(=O)[C@H](CCC(=O)O)NC(C)=O)CNC(=O)CSCc2cccc(c2)CSCC(=O)NC[C@@H](C(=O)N[C@@H](Cc2c[nH]cn2)C(=O)N[C@H](C(=O)N[C@@H](CCC(N)=O)C(=O)N[C@@H](CCCNC(=N)N)C(=O)N[C@H](C(=O)N[C@@H](CCSC)C(N)=O)C(C)C)C(C)C)NC(=O)[C@H](CC(=O)O)NC(=O)[C@H](CC(C)C)NC1=O	8%
